Data published in article PMC8298264, “Function of cofactor Akirin2 in the regulation of gene expression in model human neutrophil-like HL60 cells” (Bioscience Reports, 2021).

B1: sp¦Q9H2U2¦IPYR2_HUMAN (protein, UniProt Q9H2U2 33-334, looked up)
Inorganic pyrophosphatase 2, …: ALYHTEERGQPCSQNYRLFFKNVTGHYISPFHDIPLKVNSKEENGIPMKKARNDEYENLFNMIVEIPRWTNAKMEIATKEPMNPIKQYVKDGKLRYVANIFPYKGYIWNYGTLPQTWEDPHEKDKSTNCFGDNDPIDVCEIGSKILSCGEVIHVKILGILALIDEGETDWKLIAINANDPEASKFHDIDDVKKFKPGYLEATLNWFRLYKVPDGKPENQFAFNGEFKNKAFALEVIKSTHQCWKALLMKKCNGGAINCTNVQISDSPFRCTQEEARSLVESVSSSPNKESNEEEQVWHFLGK
B2: sp¦Q9NVI7¦ATD3A_HUMAN (protein, UniProt Q9NVI7 2-586, looked up)
ATPase family AAA …: SWLFGINKGPKGEGAGPPPPLPPAQPGAEGGGDRGLGDRPAPKDKWSNFDPTGLERAAKAARELEHSRYAKDALNLAQMQEQTLQLEQQSKLKEYEAAVEQLKSEQIRAQAEERRKTLSEETRQHQARAQYQDKLARQRYEDQLKQQQLLNEENLRKQEESVQKQEAMRRATVEREMELRHKNEMLRVEAEARARAKAERENADIIREQIRLKAAEHRQTVLESIRTAGTLFGEGFRAFVTDWDKVTATVAGLTLLAVGVYSAKNATLVAGRFIEARLGKPSLVRETSRITVLEALRHPIQVSRRLLSRPQDALEGVVLSPSLEARVRDIAIATRNTKKNRSLYRNILMYGPPGTGKTLFAKKLALHSGMDYAIMTGGDVAPMGREGVTAMHKLFDWANTSRRGLLLFVDEADAFLRKRATEKISEDLRATLNAFLYRTGQHSNKFMLVLASNQPEQFDWAINDRINEMVHFDLPGQEERERLVRMYFDKYVLKPATEGKQRLKLAQFDYGRKCSEVARLTEGMSGREIAQLAVSWQATAYASEDGVLTEAMMDTRVQDAVQQHQQKMCWLKAEGPGRGDEPSPS
B3: sp¦P07954¦FUMH_HUMAN (protein, UniProt P07954 45-510, looked up)
Fumarate hydratase, …: ASQNSFRIEYDTFGELKVPNDKYYGAQTVRSTMNFKIGGVTERMPTPVIKAFGILKRAAAEVNQDYGLDPKIANAIMKAADEVAEGKLNDHFPLVVWQTGSGTQTNMNVNEVISNRAIEMLGGELGSKIPVHPNDHVNKSQSSNDTFPTAMHIAAAIEVHEVLLPGLQKLHDALDAKSKEFAQIIKIGRTHTQDAVPLTLGQEFSGYVQQVKYAMTRIKAAMPRIYELAAGGTAVGTGLNTRIGFAEKVAAKVAALTGLPFVTAPNKFEALAAHDALVELSGAMNTTACSLMKIANDIRFLGSGPRSGLGELILPENEPGSSIMPGKVNPTQCEAMTMVAAQVMGNHVAVTVGGSNGHFELNVFKPMMIKNVLHSARLLGDASVSFTENCVVGIQANTERINKLMNESLMLVTALNPHIGYDKAAKIAKTAHKNGSTLKETAIELGYLTAEQFDEWVKPKDMLGPK
B4: sp¦P18859¦ATP5J_HUMAN (protein, UniProt P18859 33-108, looked up)
ATP synthase peripheral stalk …: NKELDPIQKLFVDKIREYKSKRQTSGGPVDASSEYQQELERELFKLKQMFGNADMNTFPTFKFEDPKFEVIEKPQA
B5: sp¦P22102¦PUR2_HUMAN (protein, UniProt P22102 2-1010, looked up)
Trifunctional purine …: AARVLIIGSGGREHTLAWKLAQSHHVKQVLVAPGNAGTACSEKISNTAISISDHTALAQFCKEKKIEFVVVGPEAPLAAGIVGNLRSAGVQCFGPTAEAAQLESSKRFAKEFMDRHGIPTAQWKAFTKPEEACSFILSADFPALVVKASGLAAGKGVIVAKSKEEACKAVQEIMQEKAFGAAGETIVIEELLDGEEVSCLCFTDGKTVAPMPPAQDHKRLLEGDGGPNTGGMGAYCPAPQVSNDLLLKIKDTVLQRTVDGMQQEGTPYTGILYAGIMLTKNGPKVLEFNCRFGDPECQVILPLLKSDLYEVIQSTLDGLLCTSLPVWLENHTALTVVMASKGYPGDYTKGVEITGFPEAQALGLEVFHAGTALKNGKVVTHGGRVLAVTAIRENLISALEEAKKGLAAIKFEGAIYRKDVGFRAIAFLQQPRSLTYKESGVDIAAGNMLVKKIQPLAKATSRSGCKVDLGGFAGLFDLKAAGFKDPLLASGTDGVGTKLKIAQLCNKHDTIGQDLVAMCVNDILAQGAEPLFFLDYFSCGKLDLSVTEAVVAGIAKACGKAGCALLGGETAEMPDMYPPGEYDLAGFAVGAMERDQKLPHLERITEGDVVVGIASSGLHSNGFSLVRKIVAKSSLQYSSPAPDGCGDQTLGDLLLTPTRIYSHSLLPVLRSGHVKAFAHITGGGLLENIPRVLPEKLGVDLDAQTWRIPRVFSWLQQEGHLSEEEMARTFNCGVGAVLVVSKEQTEQILRDIQQHKEEAWVIGSVVARAEGSPRVKVKNLIESMQINGSVLKNGSLTNHFSFEKKKARVAVLISGTGSNLQALIDSTREPNSSAQIDIVISNKAAVAGLDKAERAGIPTRVINHKLYKNRVEFDSAIDLVLEEFSIDIVCLAGFMRILSGPFVQKWNGKMLNIHPSLLPSFKGSNAHEQALETGVTVTGCTVHFVAEDVDAGQIILQEAVPVKRGDTVATLSERVKLAEHKIFPAALQLVASGTVQLGENGKICWVKEE
B6: sp¦P24752¦THIL_HUMAN (protein, UniProt P24752 34-427, looked up)
Acetyl-CoA acetyltransferase, …: VSKPTLKEVVIVSATRTPIGSFLGSLSLLPATKLGSIAIQGAIEKAGIPKEEVKEAYMGNVLQGGEGQAPTRQAVLGAGLPISTPCTTINKVCASGMKAIMMASQSLMCGHQDVMVAGGMESMSNVPYVMNRGSTPYGGVKLEDLIVKDGLTDVYNKIHMGSCAENTAKKLNIARNEQDAYAINSYTRSKAAWEAGKFGNEVIPVTVTVKGQPDVVVKEDEEYKRVDFSKVPKLKTVFQKENGTVTAANASTLNDGAAALVLMTADAAKRLNVTPLARIVAFADAAVEPIDFPIAPVYAASMVLKDVGLKKEDIAMWEVNEAFSLVVLANIKMLEIDPQKVNINGGAVSLGHPIGMSGARIVGHLTHALKQGEYGLASICNGGGGASAMLIQKL
B7: sp¦P36957¦ODO2_HUMAN (protein, UniProt P36957 68-453, looked up)
Dihydrolipoyllysine-residue …: DDLVTVKTPAFAESVTEGDVRWEKAVGDTVAEDEVVCEIETDKTSVQVPSPANGVIEALLVPDGGKVEGGTPLFTLRKTGAAPAKAKPAEAPAAAAPKAEPTAAAVPPPAAPIPTQMPPVPSPSQPPSGKPVSAVKPTVAPPLAEPGAGKGLRSEHREKMNRMRQRIAQRLKEAQNTCAMLTTFNEIDMSNIQEMRARHKEAFLKKHNLKLGFMSAFVKASAFALQEQPVVNAVIDDTTKEVVYRDYIDISVAVATPRGLVVPVIRNVEAMNFADIERTITELGEKARKNELAIEDMDGGTFTISNGGVFGSLFGTPIINPPQSAILGMHGIFDRPVAIGGKVEVRPMMYVALTYDHRLIDGREAVTFLRKIKAAVEDPRVLLLDL
B8: sp¦Q6RFH5¦WDR74_HUMAN (protein, UniProt Q6RFH5 1-385, looked up)
WD repeat-containing protein …: MAAAAARWNHVWVGTETGILKGVNLQRKQAANFTAGGQPRREEAVSALCWGTGGETQMLVGCADRTVKHFSTEDGIFQGQRHCPGGEGMFRGLAQADGTLITCVDSGILRVWHDKDKDTSSDPLLELRVGPGVCRMRQDPAHPHVVATGGKENALKIWDLQGSEEPVFRAKNVRNDWLDLRVPIWDQDIQFLPGSQKLVTCTGYHQVRVYDPASPQRRPVLETTYGEYPLTAMTLTPGGNSVIVGNTHGQLAEIDLRQGRLLGCLKGLAGSVRGLQCHPSKPLLASCGLDRVLRIHRIQNPRGLEHKVYLKSQLNCLLLSGRDNWEDEPQEPQEPNKVPLEDTETDELWASLEAAAKRKLSGLEQPQGALQTRRRKKKRPGSTSP
B9: sp¦P04844¦RPN2_HUMAN (protein, UniProt P04844 23-631, looked up)
Dolichyl-diphosphooligosacchar …: LTPTHYLTKHDVERLKASLDRPFTNLESAFYSIVGLSSLGAQVPDAKKACTYIRSNLDPSNVDSLFYAAQASQALSGCEISISNETKDLLLAAVSEDSSVTQIYHAVAALSGFGLPLASQEALSALTARLSKEETVLATVQALQTASHLSQQADLRSIVEEIEDLVARLDELGGVYLQFEEGLETTALFVAATYKLMDHVGTEPSIKEDQVIQLMNAIFSKKNFESLSEAFSVASAAAVLSHNRYHVPVVVVPEGSASDTHEQAILRLQVTNVLSQPLTQATVKLEHAKSVASRATVLQKTSFTPVGDVFELNFMNVKFSSGYYDFLVEVEGDNRYIANTVELRVKISTEVGITNVDLSTVDKDQSIAPKTTRVTYPAKAKGTFIADSHQNFALFFQLVDVNTGAELTPHQTFVRLHNQKTGQEVVFVAEPDNKNVYKFELDTSERKIEFDSASGTYTLYLIIGDATLKNPILWNVADVVIKFPEEEAPSTVLSQNLFTPKQEIQHLFREPEKRPPTVVSNTFTALILSPLLLLFALWIRIGANVSNFTFAPSTIIFHLGHAAMLGLMYVYWTQLNMFQTLKYLAILGSVTFLAGNRMLAQQAVKRTAH
B10: sp¦O43390¦HNRPR_HUMAN (protein, UniProt O43390 2-633, looked up)
Heterogeneous nuclear …: ANQVNGNAVQLKEEEEPMDTSSVTHTEHYKTLIEAGLPQKVAERLDEIFQTGLVAYVDLDERAIDALREFNEEGALSVLQQFKESDLSHVQNKSAFLCGVMKTYRQREKQGSKVQESTKGPDEAKIKALLERTGYTLDVTTGQRKYGGPPPDSVYSGVQPGIGTEVFVGKIPRDLYEDELVPLFEKAGPIWDLRLMMDPLSGQNRGYAFITFCGKEAAQEAVKLCDSYEIRPGKHLGVCISVANNRLFVGSIPKNKTKENILEEFSKVTEGLVDVILYHQPDDKKKNRGFCFLEYEDHKSAAQARRRLMSGKVKVWGNVVTVEWADPVEEPDPEVMAKVKVLFVRNLATTVTEEILEKSFSEFGKLERVKKLKDYAFVHFEDRGAAVKAMDEMNGKEIEGEEIEIVLAKPPDKKRKERQAARQASRSTAYEDYYYHPPPRMPPPIRGRGRGGGRGGYGYPPDYYGYEDYYDDYYGYDYHDYRGGYEDPYYGYDDGYAVRGRGGGRGGRGAPPPPRGRGAPPPRGRAGYSQRGAPLGPPRGSRGGRGGPAQQQRGRGSRGSRGNRGGNVGGKRKADGYNQPDSKRRQTNNQQNWGSQPIAQQPLQQGGDYSGNYGYNNDNQEFYQDTYGQQWK
B11: sp¦P00966¦ASSY_HUMAN (protein, UniProt P00966 1-412, looked up)
Argininosuccinate synthase: MSSKGSVVLAYSGGLDTSCILVWLKEQGYDVIAYLANIGQKEDFEEARKKALKLGAKKVFIEDVSREFVEEFIWPAIQSSALYEDRYLLGTSLARPCIARKQVEIAQREGAKYVSHGATGKGNDQVRFELSCYSLAPQIKVIAPWRMPEFYNRFKGRNDLMEYAKQHGIPIPVTPKNPWSMDENLMHISYEAGILENPKNQAPPGLYTKTQDPAKAPNTPDILEIEFKKGVPVKVTNVKDGTTHQTSLELFMYLNEVAGKHGVGRIDIVENRFIGMKSRGIYETPAGTILYHAHLDIEAFTMDREVRKIKQGLGLKFAELVYTGFWHSPECEFVRHCIAKSQERVEGKVQVSVLKGQVYILGRESPLSLYNEELVSMNVQGDYEPTDATGFININSLRLKEYHRLQSKVTAK

Tested on: human HL60 cells
Assay: SWATH-MS proteomics, differential protein representation, akirin2 KO vs WT HL60 cells
Assay type: cell-based
Settings: SWATH-MS, akirin2 KO vs WT HL60 cells; sheet "Under-represented in KO"
In short: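 Read-out is label-free SWATH-MS protein area, globally normalized to total detected-protein area, with identifications held at 1% FDR against a library from information-dependent acquisition.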

In order of rising “Fold Change” value:
1. B8  0.7453
2. B7  0.7478
3. B6  0.7481
4. B2  0.7506
5. B4  0.7532
6. B3  0.754
7. B10  0.7565
8. B5  0.7577
9. B9  0.7588
10. B1  0.76

In order of falling “Log (Fold Change)” value:
1. B1  -0.1192
2. B9  -0.1199
3. B5  -0.1205
4. B10  -0.1212
5. B3  -0.1226
6. B4  -0.1231
7. B2  -0.1246
8. B6  -0.126
9. B7  -0.1262
10. B8  -0.1277

Same assay, conditions: akirin2 KO vs WT HL60 cells; sheet "Under-represented in KO"

For B11, the “Fold Change” value was 0.3334.

For B11, the “Log (Fold Change)” value was -0.477.
